Measured values: PMC5680255

Legend:
[1] = biological target: Photosystem II subunit S (PsbS) of Physcomitrella patens, recombinant, detergent-refolded (Physcomitrella patens); assay: DOSY NMR; PsbS in FC-12, pH 5.0; 1H HN intensities, double-exponential fit
[2] = biological target: Photosystem II subunit S (PsbS) of Physcomitrella patens, recombinant, detergent-refolded (Physcomitrella patens); assay: SDS-PAGE without boiling; PsbS refolded in FC-12, pH 7.5; samples taken day 0 to day 90 after refolding; not boiled before loading
[3] = biological target: Photosystem II subunit S (PsbS) of Physcomitrella patens, recombinant, detergent-refolded (Physcomitrella patens); assay: SEC; Superdex 200 5/150 GL; 100 mM sodium phosphate pH 7.5 with 0.05% FC12; detection at 260 nm
[4] = biological target: Photosystem II subunit S (PsbS) of Physcomitrella patens, recombinant, detergent-refolded (Physcomitrella patens); assay: SDS-PAGE without boiling; PsbS refolded in FC-12, pH 5.0; samples taken day 0 to day 90 after refolding; not boiled before loading
[5] = biological target: Photosystem II subunit S (PsbS) of Physcomitrella patens, recombinant, detergent-refolded (Physcomitrella patens); assay: DOSY NMR; PsbS in FC-12, pH 7.5; 1H HN intensities, double-exponential fit
[6] = biological target: Photosystem II subunit S (PsbS) of Physcomitrella patens, recombinant, detergent-refolded (Physcomitrella patens); assay: SEC; Superdex 200 5/150 GL; 100 mM sodium phosphate pH 7.5 with 1% OG; detection at 260 nm

Measured: stoichiometry N

Photosystem II subunit S (PsbS) of Physcomitrella patens, recombinant, detergent-refolded (natural protein)
2: all assays above
